Common to all, as to test: EMSA
Details in all cases: 20 mM Tris-HCl pH 8.0, 1 mM DTT, 50 mM KCl, 5 mM MgCl2, 0.05 mg/mL BSA, 10% glycerol

For series [1], the target named is T1, Zur (Mycobacterium bovis BCG) (UniProt P9WN85).
T1 sequence: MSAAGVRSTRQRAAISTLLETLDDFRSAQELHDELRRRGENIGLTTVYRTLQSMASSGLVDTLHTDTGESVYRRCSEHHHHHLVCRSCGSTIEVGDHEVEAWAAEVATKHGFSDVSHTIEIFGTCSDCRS

The target in series [2] is T2, IdeR (Mycobacterium bovis BCG) (UniProt P9WMH1).
T2 sequence: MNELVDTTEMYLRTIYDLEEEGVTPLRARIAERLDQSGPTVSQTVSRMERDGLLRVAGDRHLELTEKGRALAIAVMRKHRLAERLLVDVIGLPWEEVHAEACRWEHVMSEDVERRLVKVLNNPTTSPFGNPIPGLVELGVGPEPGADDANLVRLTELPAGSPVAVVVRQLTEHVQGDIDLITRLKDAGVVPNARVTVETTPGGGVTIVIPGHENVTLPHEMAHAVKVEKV

The target in series [3] is T3, IdeR;Zur (Mycobacterium bovis BCG;Mycobacterium bovis BCG) (UniProt P9WMH1+P9WN85).
T3 sequence 1: T2 sequence
T3 sequence 2: T1 sequence

Turning to “ACGTCAGCGTCTACCTTGCCATTTACCCGAGACGCGACGGGGGAAGCGGCCACCATGCCAATGTCATCACGCTCCACGCCTCCGCTGTCTCCTTCACCTACGCCCGCCATCGGCCGATCCGCCTGAACTTTGCCCCGAAGTTAGCATTGCATAAGCTAACTGTCGAGGCGACCGCGACCAATCGACTCGGCCCTGCGGCCAAGCTTTTAGGCACGGCTGGCAAGATCATGACCGATACTCCATTTCGTTGGTAGCCCGATATGCAGAGTGTAG (double strand) [esx-3p2]”, the binding result is “no binding” in series [1], “binds” in series [2] and “binds” in series [3].

Values taken from publication PMC10580935.
